Assay: soluble on expression in E. coli; label from the status in PepcDB or PDB records
For “MSLDIAVVGIGYVGLVSATCFAELGANVRCIDTDRNKIEQLNSGTIPIYEPGLEKMIARNVKAGRLRFGTEIEQAVPEADIIFIAVGTPAGEDGSADMSYVLDAARSIGRAMSRYILIVTKSTVPVGSYRLIRKAIQEELDKREVLIDFDIASNPEFLKEGNAIDDFMKPDRVVVGVDSDRARELITSLYKPMLLNNFRVLFMDIASAEMTKYAANAMLATRISFMNDVANLCERVGADVSMVRLGIGSDSRIGSKFLYPGCGYGGSCFPKDVKALIRTAEDNGYRMEVLEAVERVNEKQKSILFDKFSTYYKGNVQGRCVAIWGLSFKPGTDDMREAPSLVLIEKLLEVGCRVRVYDPVAMKEAQKRLGDKVEYTTDMYDAVRGAEALFHVTEWKEFRMPDWSALSQAMAASLVIDGRNVYELPADSDFTLLNIGNSAIESEGHHHHHH”, the “soluble on expression in E. coli” value was “soluble”. In the case of “MAIYSFKMENISRGEGQSSVNSAAYRHRKVFFDNRTGEVCGRKTAHKKDLAFAQIFAPENTPSDLIVDSETLWNAVEASEKRKDARLAKEFKIALPAELTPEQSIELTKAFVLEHFTKQGIITDVVIHDINGHNPHIHIMGTTREVLSTGFGKKVREWDKPETLDSWRKGWQNICNEFLDLYGHDERIDHRSIRVQYKEALEQATAAATNEEKAIWLAKAIETNRDPILHIPRDRWGTLAAQEQRAAEQAIRDEQKKEAVEAYFTFKDLPLDIVVDVASFRVHALAEPEEIVIPDNTGKGSSTGSQKPVLVAPVPHTRTTLKTPSTSTARTLKRAPVKVKRKKVEPRQSGVFKRFTLLVVDYIREKFVWAKKKPVPVSVDAEHDERIAENYVFDEVQGIYVPRAEHERRARFNSDTYSPTPDEIRRFPRRPLKPDQANNTLDYIPTFSWDRKPSVLQLKPSGYRDKELEHHHHHH”, the “soluble on expression in E. coli” value is reported as “not soluble”. In the case of “MAHHHHHHMLYLKEIELGNYYICNLDDYPREYCVVDYDPNKVIKFLCPIVHNEGEEMKTYDSSYCFRYKGIKDRLIISNNEEQIYTTLPGIILENQILYDRYNLGIYLMPLKLEEDMSIVCVCDTKKEYKGITPYIKINIKKSNNLLGADSADQHIKGCDFGNNQGEHQFLTNSQSYEENLVCEIHANPGDIVGINCINYNEGDLQNYEVKLEPSNCFSTVSFSLYTLSFVKMNINNIFPDARYYPESSAFPKDPNFKKFSTTSYLWIPAHVPEDFLFFCSCRYAQGEGVAIYHVGSSAAAVEAV”, the “soluble on expression in E. coli” value is reported as “not soluble”. For “TGQIGTKGTVLFCNPTETEQYLKCNVEMFVQGASSANDFKKGYTFDLYNSNGEELGVKFGDMISSSSFHLKAFYRDPTHTRDQAGYRFWKSLAETLDYPYCKINNSVYAQSTTRSDKAEFTFDAKYYPHGFPVEIYLNDTFHGLYTLRLKKTRENYTLNNADLNHIFLDNAEYRARLNTSFNYAQWEIKSPKMKGYSDQGPIPATFPTVQAAIDNLFNFTKGLSANYANHATVLNLPHWVLFYILAELTGHWDIDGNNYNIFTWDGVHWSILPYDMDLTLNWYRNSGATQTGFLINVDIWQTFRTVYSNEIKAMWTKFRNEKSLTTEKVVNTYRNVAKDIPREVYVADKAKWGLATDFTGNDYPNIEQIYRYITARIAYL”, the “soluble on expression in E. coli” value was “not soluble”. In the case of “MPLEASELKPTAGPLEASELKPTAGPLEASELKPTAGPLEASELKPTAGPLEASELKPTAGPLEASELKPTAGPLEASELKPTAGMEKTKKIAVMSGKGGVGKTTVAVNLAVALAAEGYQVGLLDLDLHGPNVQRMLGVSLPPSEGEKIVPAKYGDSLKVFSLAMILQEGAPVIWRGPLKHKAIEQLTRDVEWGDLDYLICDLPPGTGDEALSTFQIIKPDAVIVVSTPQKVAGDDVRRAINFVKRLSGKILGLVENMSYLVCPNCGEKIYVFGKGETEKLAEEFGIPLIARIPMDPEVVSLSDEGRPAVVYKRGTVIEEEFKKIVEKVLSLLEHHHHHH”, the “soluble on expression in E. coli” value is reported as “not soluble”. In the case of “MQKLILSALFVALVAADCNMRCPDGYMSFKRTPTPKNSMTGMAILSDTLISPNQAKKVCEKDGSILTSFENFDERTKLSTVLRDFLTAKKLDRGSMIVDGHRLKNCETTDKTVLATVECRNSSSGFTTDEKHTDNTFMWKSWSATEPGQTIFEKSIESCLQLSISQFPARSELINDVFCNYVKHPENEGASDLWNYGAVCGRFPEWI”, the “soluble on expression in E. coli” value is reported as “not soluble”. For “MVCQHNDELEALVKKAKKVTDKGEVASYIPALAKADKHDLSVAIYYSNNVCLSAGDVEKTFTLQSISKVLSLALVLMEYGKDKVFSYVGQEPTGDPFNSIIKLETVNPSKPLNPMINAGALVVTSLIRGRTVKERLDYLLSFIRRLTNNQEITYCREVAESEYSTSMINRAMCYYMKQYGIFEDDVEAVMDLYTKQCAIEMNSLDLAKIGSVFALNGRHPETGEQVISKDVARICKTFMVTCGMYNASGEFAIKVGIPAKSGVSGGIMGISPYDFGIGIFGPALDEKGNSIAGVKLLEIMSEMYRLSIFLEHHHHHH”, the “soluble on expression in E. coli” value was “soluble”. For “MGSDKIHHHHHHMSNRQEQPHFNDWFQARGITEVECLVTDLTGILKGKIMPAGKYLGGGRPRLPDSIFIQTVTGGYPDDDDIHFWNPAERDMELVPDPNAVFLVPWADDPTAQIIHDCHYLTGEPVELAPRHVLKRVLACYQARGWKPVVAPEVEFFLVKTNTDSDYPLEPPIGRNGRQESSRQSFSIDAVNEFDPLFEEMYDYCDAMSLDLDTLIHEEGAGQMEVNFQHGDPLHLADQVVMFKRALRETALRHGMYATFMAKPMANEPGSSMHLHQSLLDAQSGDNLFASDNGQSSRLFQHFIGGLQRYLPASMPLLAPNVNSYRRLMRTETSGSAPINVEWGTDNRTVGLRVPVSTPEATRVENRLAGADANPYLVMAASLACGYLGMLGQLEPRPPMVGSAWSGGHKLPDDIRPALDMLSECQPLAEILGERFTNSYLAVKRAEHREYFQVISSWEREHLLLRV”, the “soluble on expression in E. coli” value was “not soluble”. With “MSLDLFDRKAAADTLKEAPLAERMRPRTLAEYVGQEHLLGPGKLLRQLIETDQLTSLIFWGPPGSGKTTLARIIAGATKSHFIFFSAILSGIKEIREIVKEADDIRKFHGKRTILFVDEIHRFNKSQQDAFLPYVERGVFTIIGATTENPSFEVIAPLLSRCKVLVLNPLTEEEITGILRQALADKERGLGALDLAIEDDALTFMAEQAGGDARVALNTLETASRLTSNGVVSLDTAREAVQKKPLLYDKGGEEHYNVISAFIKSMRGSDPDGALYWLARMIEAGEDPIFILRRMVILASEDIGNADPRALQVAVTALQGFQLVGMPEGRIIIGQAVTYLATAPKSNASYVGIDAALAEVRKSGALPVPLHIRNAPTRLMKDLGYGTGYRYAHDYAEGYVAQDYLPDQIKGRKYYDPTGHGYEKSIKERMEWLKGKKEGHHHHHH” the “soluble on expression in E. coli” value was “soluble”. With “MVSAPSIDTPSATTFDFDSSVFKKEKVTLSGHDEYIVRGGRNLFPLLPDAFKGIKQIGVIGWGSQAPAQAQNLKDSLTEAKSDVVVKIGLRKGSNSFAEARAAGFSEENGTLGDMWETISGSDLVLLLISDSAQADNYEKVFSHMKPNSILGLSHGFLLGHLQSLGQDFPKNISVIAVCPKGMGPSVRRLYVQGKEVNGAGINSSFAVHQDVDGRATDVALGWSIALGSPFTFATTLEQEYKSDIFGERGILLGAVHGIVECLFRRYTESGMSEDLAYKNTVECITGVISKTISTKGMLALYNSLSEEGKKDFQAAYSASYYPSMDILYECYEDVASGSEIRSVVLAGRRFYEKEGLPAFPMGKIDQTRMWKVGEKVRSVRPAGDLGPLYPFTAGVYVALMMAQIEILRKKGHSYSEIINESVIEAVDSLNPFMHARGVSFMVDNCSTTARLGSRKWAPRFDYILSQQALVAVDNGAPINQDLISNFLSDPVHEAIGVCAQLRPSVDISVTADADFVRPELRQA” the “soluble on expression in E. coli” value was “soluble”. For “MKGNFVVSKEDWSLHRKGYDDQKRHQEKVKEAIKNNLPDLITEESIIMSNGRDVIKIPIRSLDEYKIRYNYEKNKHVGQGNGDSQVGDVVARDGSGEGQGPGKGQGAGDLPGQDYYEAEVSLMEIEEAFFSQLELPNLQRKELDQNVTQHIEFNDIRRTGLMGNIDKKRTMLAAFKRNAMNGKPGFYPIYREDLKFKTWNEVVKPESKAVVLAMMDTSGSMGMWEKYMARSFFFWMTRFLRTKYETVEIAFIAHHTEAKVVTEEEFFTKGESGGTICSSAYRKALELIETKYSPSRYNIYPFHFSDGDNLTSDNARCVKLVQELMKVSNMFGYGEVNQYNRHSTLMSAYRNIKDEKFRYYILKQKSDVFHAMRTFFRKEESKQLV”, the “soluble on expression in E. coli” value was “not soluble”. For “MGSDKIHHHHHHMNQNRIPLYEALIEFKERRPLSFHVPGHKNGLNFPQGAVEEFKDILSIDVTELSGLDDLHSPFECIDEAQQLLADVYEVEKSYFLINGSTVGNLAMILSCCREHDIVLVQRNCHKSIINGLKLAGANPIFLDSWIDEAYNVPVGIHDEIIKEAIEKYPNAKALILTHPNYYGMGMDLEASIAYAHAHKIPVLVDEAHGAHFCLGGAFPKSALAYGADIVVHSAHKTLPAMTMGSYLHINSRLVKEERVSTYLSMLQSSSPSYPIMASLDIARFTIARIKEKGHDEIVEFLREFKEELSSIPQIAILQYPLQDELKVTVQTRCQLSGYELQSVLEKVGIYTEMADPYNVLFILPLQVNKTYMKAVEMIRAALQSYEVKDKTESIRYTYKGEISPLPYTYKQLEGYETKVVSVEEAVGMIAAEMVIPYPPGIPLIMYGERITSEHKEQIMHLERAGARFQGSTKYMKVYDIESRF”, the “soluble on expression in E. coli” value was “not soluble”. In the case of “MDANEKKEVIKKKYQEIAILGGSCCSGGCCGDSNSTDLSRSLGYSESDVQAVPDANMGLGCGNPTAFAELKPGDVVLDLGSGGGFDCFLAAQKIGSSGKVIGVDMTLEMVEKAQANARKYGYSNVEFRHGDIESLPVKDSSVDVIISNCVINLAPDKEKVFREAFRVLKPEGRMYISDMVLLDELPEELKNDSELLAGCIAGAVLKEEYLGLLKKAGFSVEILNEDLDISKRQYRDLPVESLKLKARVLEHHHHHH”, the “soluble on expression in E. coli” value is reported as “soluble”. For “MDKLESNKKAPLYQQLYDAILNKVRSGEYQVGEKIPSEEQLMTIYGVSRVTVRNAIKQLVDENILIKRHGKGTFVSMPSYVESMTAGGSFTESGLKMNRKPTTKIISICLKKATGHVAEALGVEKATEVIVIERLRSLDNMPAIFEIDYFRKEDQFMLDLELTDTSLLDILRQYRGVIASYFDNIIEIALADEKLAEALAISEEEALVKINQTVVDNDNQILYFNEQYILSESYKVAIRSYNK”, the “soluble on expression in E. coli” value was “not soluble”. With “MRGPLLPPTVPGWRSRAERFDMAVLEAYEPIERRWQERVSQLDIAVDEIPRIAAKDPESVQWPPEVIADGPIALARLIPAGVDVRGNATRARIVLFRKPIERRAKDTEELGELLHEILVAQVAIYLDVDPSVIDPTIDD” the “soluble on expression in E. coli” value was “soluble”. With “HDGIERELTIAVNNIIPGDLLVAFIRDFERQFTSTTLTVDLEVYNGCWDALYSKRADLVYGAPHAVPSSEGIISEPVGQMEWDFVVSPLHPLAAKRHPLENSELRHYPAVCIRDTSVNFPPMQAWLLEGQKPIFVPDFATAIALIE” the “soluble on expression in E. coli” value was “not soluble”. For “MSDRHMSSIFPECDHLKQIYDKCFTEFFQKFITPNYRHQYAVNPCERLHDVYKRCVEERLATQRPFEIDLDEIRKEYLNTDDDKLKDRQNNQKTNSENKCSSS”, the “soluble on expression in E. coli” value was “not soluble”. In the case of “MSSGSSNFLLVPIPEYPVLDCVPNKNVKIVVLGASNVGKTALIVRFLTKRFIGDYEANTGALYSRKINLDGEQVSLQVQDTPCVSLQDDADGLYCQEQINRSITGRTVMCSSSPSLTSTATAPSSLSTNMCAESTPAVTSLSSSWETRATFCEPDRSQIPKGRRWRMNWEGYTLRLRPGRTTRASRQLFCTYVRR”, the “soluble on expression in E. coli” value is reported as “not soluble”. With “MSLDVSVSATGHDNVTARHDSTLELTTDDFLTPAGDCILGIDADCSPAAFSDAFVAACQDAAATITLVLDTPQHRDEITGSGHPDLTFTNDRSMVGRTSTYVDDRTVFVDADKAAADVDREMVAALADGAPLTATLRVDEGHHHHHH” the “soluble on expression in E. coli” value was “soluble”.

From the DeepSol protein solubility set
